Test results from paper doi:10.1101/2020.03.20.000893 (bioRxiv, 2020).

Biological target: the molecule itself
Assay: crystal structure

B1: K2P2.1_(cryst), engineered mouse K2P2.1 (TREK-1) (domain or fragment, UniProt P97438-2 21-322, looked up)
chain: SFSSKPTVLASRVESDSAINVMKWKTVSTIFLVVVLYLIIGATVFKALEQPQEISQRTTIVIQREKFLRAHPCVSDQELDELIQQIVAAINAGIIPLGASSNQVSHWDLGSSFFFAGTVITTIGFGNISPRTEGGKIFCIIYALLGIPLFGFLLAGVGDQLGTIFGKGIAKVEDTFIKWNVSQTKIRIISTIIFILFGCVLFVALPAVIFKHIEGWSALDAIYFVVITLTTIGFGDYVAGGSDIEYLDFYKPVVWFWILVGLAYFAAVLSMIGDWLRVIAKKTKEAVGEFRAHAAEWTANVT
binding result: binds
